Source: article PMC8164090

Molecular target: Cnn-C^S186D scaffolds (Cnn-C-PReM^m with S186 phosphomimicked) (Drosophila melanogaster)

- recruitment of γ-tubulin to scaffolds in unfertilized eggs, fold over Cnn-C scaffolds: 3.8 fold
Substance: γ-tubulin37C-mCherry (from UniProt P42271 1-457) (natural protein)
